Measurements reported in PMC5829129, “Synthesis of an Al^18F radiofluorinated GLU-UREA-LYS(AHX)-HBED-CC PSMA ligand in an automated synthesis platform” (EJNMMI Radiopharmacy and Chemistry, 2018).
Like-named read-outs stand apart in the source and are kept apart here.

Legend:
[1] = tested on: LNCaP human prostate cancer cell line xenograft; assay: In vivo PET/CT imaging of LNCaP xenograft mice, tumour/muscle ratio; design: species or system Nude N: NIH (S) – Foxn 1nu mice; settings: PET, 60 min after iv injection (33–46 MBq), LNCaP xenograft nude mice, n = 3
Protocol: Nude N: NIH (S) – Foxn 1nu mice […] were used as prostate cancer tumour model, for in vivo studies. Animals were housed in racks with filtered air under controlled conditions temperature (24 ± 1) °C and relative humidity (40–60)%). They were maintained on a 14:10 h light/dark cycles in the CUDIM animal facility with food and water ad libitum.
For the development of a xenographic human prostate cancer model, LNCaP human prostate cancer cell line (ATCC ATCC® CRL-1740™).
A xenographic human prostate cancer model was used as the prostate cancer tumour model. 5 million LNCaP cells, suspended in 200 μL of culture media (RPMI) with matrix gel, were injected subcutaneously into the left upper leg of male nude mice (2 months old). Appropriate tumour volumes (100–350 mm^3) were achieved between four to six weeks post inoculation. Percutaneous testorerone was daily applied to each mice. Tumours were measured once a week with a microcalliper in two dimensions, and tumour volumes were calculated as (smaller diameter)^2 x larger diameter x π/6.
PET/CT scans were performed using a small animal tri-modality PET/SPECT/CT scanner (TriumphTM, TriFoil, Inc., US) based on Quad-APD detector modules coupled with LYSO/LGSO scintillators (spatial resolution: 1.0 mm; axial field of view (FOV): 3.75 cm). […]
Image processing and semi-quantitative analysis was done using PMOD software, v.3.4. […]

[2] = type: physicochemical; settings: for Radiochemical purity in the final formulation at room temperature: final formulation vial, HPLC C8, gamma detector, n = 3
Protocol: The radiochemical purity (RP) was determined using HPLC analysis, a reverse phase column Agilent ZORBAX Eclipse Plus C8 4.6x150mm 5 μm column, flux 2.0 mL/min and the following solvent gradient: (A) TFA 0.1% (v/v) in water, (B) TFA 0.1% (v/v) in acetonitrile; 0–7 min 0 %B, 7–10 min (0–50) %B with GAMMA detector. The stability in the labeling milieu, after purification and preconditioning [^18F]-AlF-PSMA, was performed after incubation the final formulation vial at room temperature for 4 h. In both cases, samples were analyzed by HPLC, using previously described chromatographic conditions.

[3] = cited from earlier work
Excerpt: However, the work of S. Lütje, et al. presented in the EANM 2017, obtain a product which is not stable in PBS, TFA or ethanol. In addition, the product presented in vivo a bone uptake associated with instability of the compound. (Lütje et al. [2017]). Nevertheless E. Al-Momani et al. (Al-Momami et al. [2017]) reported that the stability of the radiopharmaceutical was highly dependent of the formulation conditions, being stable in saline solution with 1% of ethanol or acetate buffer pH 6, and not stable in ethanol 10%/PBS.

[4] = cited from earlier work; remark: listed apart in the source
Excerpt: However, the work of S. Lütje, et al. presented in the EANM 2017, obtain a product which is not stable in PBS, TFA or ethanol. In addition, the product presented in vivo a bone uptake associated with instability of the compound. (Lütje et al. [2017]). Nevertheless E. Al-Momani et al. (Al-Momami et al. [2017]) reported that the stability of the radiopharmaceutical was highly dependent of the formulation conditions, being stable in saline solution with 1% of ethanol or acetate buffer pH 6, and not stable in ethanol 10%/PBS. || Our results with the automated synthesis were in agreement with those previously reported by N. Malik, et by a manual process. In this paper the optimal pH of labeling turned out to be 5 and the stability was greater than 90% at 4 h post production (Malik et al. [2015]). || Recently Kersemans et al. ([n.d.]) have reported an automated synthesis of this radiopharmaceutical in a modified SynthraFCHOL synthesis module (Synthra GmbH, Hamburg, Germany), with a similar e.o.s yield. 100 to 200 μg of the peptide were necessary to achieve a labelling yield higher than 70%. The radiopharmaceutical was stable in buffer phosphate 5 mM pH 7 at least during 150 min.

With “[^18F]AlF-[GLU-UREA-LYS(AHX)-HBED-CC] [[^18F]AlF-PSMA-11]” the “mean T/M ratio (T = Tumor, M = muscle)” value [1] was 2.2 ± 0.9, the “Time of stability in the final formulation vial” value [2] was 4 h and the “Radiochemical purity in the final formulation vial” value ([2]; during 4 h post production, room temperature, HPLC) was “greater than 90%”. The “Radiochemical purity in the final formulation at room temperature” value (“Radiochemical purity … at room temperature” below) ([2]; room temperature, 1 h post synthesis) was 94.6 ± 1.8%, the “Radiochemical purity … at room temperature” value ([2]; room temperature, 2 h post synthesis) was 92.8 ± 2.5% and the “Radiochemical purity … at room temperature” value ([2]; room temperature, 3 h post synthesis) was 93.7 ± 2.0%. For the same substance, the “Radiochemical purity … at room temperature” value ([2]; room temperature, 4 h post synthesis) was 94.2 ± 2.8%, the “In vivo bone uptake associated with instability of the compound” value [3] was “bone uptake” and the “Stability in PBS, TFA or ethanol” value [4] was “not stable”. The “Stability in ethanol 10%/PBS” value [4] was “not stable”, the “Stability at 4 h post production” value ([4]; pH 5) was “greater than 90%” and the “Stability in saline solution with 1% of ethanol or acetate buffer pH 6” value ([4]; pH 6) was “stable”. For the same substance, the “Time of stability in buffer phosphate 5 mM pH 7” value ([4]; pH 7) was no less than 150 min.
